# Article PMC6321010, “Interaction of the GTPase Elongation Factor Like-1 with the Shwachman-Diamond Syndrome Protein and Its Missense Mutations” (International Journal of Molecular Sciences, 2018)
# Where a chain is given by its changes, count along the chain named.
# T1: human SBDS wild type with C-terminal FlAsH tag, labelled with Lumio Green (human, UniProt Q9Y3A5 1-250, Lumio Green dye (4',5'-bis(1,3,2-dithioarsolan-2-yl) fluorescein) on the C-terminal FlAsH tag)
# T1 construct: human SBDS, wild type, called the full-length protein; also called SBDS-FlAsH; Shwachman-Bodian-Diamond Syndrome protein; source: E. coli C41 (pRSET plasmid), purified by conventional chromatographic techniques; not shown: FlAsH tag (Cys-Cys-Pro-Gly-Cys-Cys), C-terminal, kept
# T1 sequence (looked up): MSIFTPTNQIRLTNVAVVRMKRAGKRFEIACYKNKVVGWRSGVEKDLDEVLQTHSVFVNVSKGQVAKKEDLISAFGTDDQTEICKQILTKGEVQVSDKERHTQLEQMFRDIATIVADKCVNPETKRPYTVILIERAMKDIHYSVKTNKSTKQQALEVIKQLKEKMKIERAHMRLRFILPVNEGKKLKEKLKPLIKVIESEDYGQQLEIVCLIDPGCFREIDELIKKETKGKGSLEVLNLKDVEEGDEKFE
# T2: human SBDS domains 1-2 (residues 1-174) with C-terminal FlAsH tag, labelled with Lumio Green (human, UniProt Q9Y3A5 1-174, Lumio Green dye (4',5'-bis(1,3,2-dithioarsolan-2-yl) fluorescein) on the C-terminal FlAsH tag)
# T2 construct: human SBDS, domains 1-2, residues 1-174; also called construct consisting of domains 1-2 of SBDS; source: E. coli C41 (pRSET plasmid), purified by conventional chromatographic techniques; not shown: FlAsH tag (Cys-Cys-Pro-Gly-Cys-Cys), C-terminal, kept
# T2 sequence (looked up): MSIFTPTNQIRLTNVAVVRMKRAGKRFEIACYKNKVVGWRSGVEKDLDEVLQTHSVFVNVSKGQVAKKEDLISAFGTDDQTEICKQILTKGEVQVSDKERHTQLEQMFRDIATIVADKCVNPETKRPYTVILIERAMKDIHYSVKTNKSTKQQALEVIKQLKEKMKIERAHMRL
# T3: human SBDS R19Q with C-terminal FlAsH tag, labelled with Lumio Green (human, UniProt Q9Y3A5 1-250, R19Q, Lumio Green dye (4',5'-bis(1,3,2-dithioarsolan-2-yl) fluorescein) on the C-terminal FlAsH tag)
# T3 construct: human SBDS, SDS disease surface missense variant R19Q (domain 1), in the three-domain protein; Missense variant found in patients; source: E. coli C41 (pRSET plasmid), purified by conventional chromatographic techniques; not shown: FlAsH tag (Cys-Cys-Pro-Gly-Cys-Cys), C-terminal, kept
# T3 sequence (looked up): T1 sequence (looked up) with R19Q
# T4: human SBDS K67E with C-terminal FlAsH tag, labelled with Lumio Green (human, UniProt Q9Y3A5 1-250, K67E, Lumio Green dye (4',5'-bis(1,3,2-dithioarsolan-2-yl) fluorescein) on the C-terminal FlAsH tag)
# T4 construct: human SBDS, SDS disease surface missense variant K67E (domain 1), in the three-domain protein; Missense variant found in patients; source: E. coli C41 (pRSET plasmid), purified by conventional chromatographic techniques; not shown: FlAsH tag (Cys-Cys-Pro-Gly-Cys-Cys), C-terminal, kept
# T4 sequence (looked up): T1 sequence (looked up) with K67E
# B1: human Elongation Factor Like-1 (EFL1) (enzyme)
# chain: MVLNSLDKMIQLQKNTANIRNICVLAHVDHGKTTLADCLISSNGIISSRLAGKLRYMDSREDEQIRGITMKSSAISLHYATGNEEYLINLIDSPGHVDFSSEVSTAVRICDGCIIVVDAVEGVCPQTQAVLRQAWLENIRPVLVINKIDRLIVELKFTPQEAYSHLKNILEQINALTGTLFTSKVLEERAERETESQVNPNSEQGEQVYDWSTGLEDTDDSHLYFSPEQGNVVFTSAIDGWGFGIEHFARIYSQKIGIKKEVLMKTLWGDYYINMKAKKIMKGDQAKGKKPLFVQLILENIWSLYDAVLKKDKDKIDKIVTSLGLKIGAREARHSDPKVQINAICSQWLPISHAVLAMVCQKLPSPLDITAERVERLMCTGSQTFDSFPPETQALKAAFMKCGSEDTAPVIIFVSKMFAVDAKALPQNKPRPLTQEEIAQRRERARQRHAEKLAAAQGQAPLEPTQDGSAIETCPKGEEPRGDEQQVESMTPKPVLQEENNQESFIAFARVFSGVARRGKKIFVLGPKYSPLEFLRRVPLGFSAPPDGLPQVPHMAYCALENLYLLMGRELEYLEEVPPGNVLGIGGLQDFVLKSATLCSLPSCPPFIPLNFEATPIVRVAVEPKHPSEMPQLVKGMKLLNQADPCVQILIQETGEHVLVTAGEVHLQRCLDDLKERFAKIHISVSEPIIPFRETITKPPKVDMVNEEIGKQQKVAVIHQMKEDQSKIPEGIQVDSDGLITITTPNKLATLSVRAMPLPEEVTQILEENSDLIRSMEQLTSSLNEGENTHMIHQKTQEKIWEFKGKLEQHLTGRRWRNIVDQIWSFGPRKCGPNILVNKSEDFQNSVWTGPADKASKEASRYRDLGNSIVSGFQLATLSGPMCEEPLMGVCFVLEKWDLSKFEEQGASDLAKEGQEENETCSGGNENQELQDGCSEAFEKRTSQKGESPLTDCYGPFSGQLIATMKEACRYALQVKPQRLMAAMYTCDIMATGDVLGRVYAVLSKREGRVLQEEMKEGTDMFIIKAVLPVAESFGFADEIRKRTSGLASPQLVFSHWEIIPSDPFWVPTTEEEYLHFGEKADSENQARKYMNAVRKRKGLYVEEKIVEHAEKQRTLSKNK
# notes: human EFL1, GTPase, said to comprise 1120 residues; the expressed protein is fused to a TEV recognition site and a hexahistidine tag at the C-terminus; also called human EFL1; GTPase Elongation Factor Like-1; source: S. cerevisiae BCY123 (pRS426 backbone, GAL1/10 promoter), purified
# Key:
# Assay in all cases: fluorescence polarisation; fluorescence anisotropy; 2 µL additions of 40-90 µM human EFL1 titrated into 300 µL of 0.1 µM Lumio Green-labelled human SBDS-FlAsH construct; 25 °C; 50 mM Tris-HCl pH 8, 300 mM NaCl, 5 mM β-mercaptoethanol; fitted to a single-site or a two different binding sites model
# Conditions in all cases: both partners purified
# [1] = target: T1, human SBDS wild type with C-terminal …
# [2] = target: T2, human SBDS domains 1-2 (residues 1-174) …
# [3] = target: T3, human SBDS R19Q with C-terminal FlAsH …
# [4] = target: T4, human SBDS K67E with C-terminal FlAsH …
binder,measurement,setting,value
B1,"Kd1 (first binding site, two different binding sites model)",[1],5.4 ± 1 µM
same,"Kd2 (second binding site, two different binding sites model)",[1],0.4 ± 0.04 µM
same,"Kd1 (first binding site, two different binding sites model)",[2],11.3 ± 1.8 µM
same,"Kd2 (second binding site, two different binding sites model)",[2],3.9 ± 0.2 µM
same,"Kd1 (first binding site, two different binding sites model)",[3],4.2 ± 0.5 µM
same,"Kd2 (second binding site, two different binding sites model)",[3],5.2 ± 0.3 µM
same,"Kd1 (first binding site, two different binding sites model)",[4],7.2 ± 2 µM
same,"Kd2 (second binding site, two different binding sites model)",[4],3 ± 1 µM
